In US20080226630A1:

B1: antibody 800 (clone 800) (antibody, human IgG1, kappa, V domains shown)
VH: QVQLVESGGAVVQPGRSLRLSCEVSGFSFSDYGMNWVRQGPGKGLEWVAVIWHDGSNKNYLDSVKGRFTVSRDNSKNTLFLQMNSLRAEDTAVYYCARTPYEFWSGYYFDFWGQGTLVTVSS
VL: AIQLTQSPSSLSASVGDRVTLTCRASQGITDSLAWYQQKPGKAPKVLLYAASRLESGVPSRFSGRGSGTDFTLTISSLQPEDFATYYCQQYSKSPATFGPGTKVEIRR
B2: antibody 880 (clone 880) (antibody, human IgG1, kappa, V domains shown)
VH: QITLKESGPTLVRPTQTLTLTCTFSGFSLSTSKLGVGWIRQPPGKALEWLALVDWDDDRRYRPSLKSRLTVTKDTSKNQVVLTMTNMDPVDTATYYCAHSAYYTSSGYYLQYFHHWGPGTLVTVSS
VL: DIQMTQSPSSLAASVGDRVTITCRASQTIASYVNWYQQKPGKAPNLLIYAASSLQSGVPSRFSGSGSGTDFTLTISSLQPEDFASYFCQQSYSFPYTFGQGTKLDIKR
B3: antibody 894 (clone 894) (antibody, human IgG1, kappa, V domains shown)
VH: QVQLVESGGGVVQPGKSLRLSCAASGFRFSDYGMHWVRQAPSKGLEWVAVIWHDGSNIRYADSVRGRFSISRDNSKNTLYLQMNSMRADDTAFYYCARVPFQIWSGLYFDHWGQGTLVTVSS
VL: EIVMTQSPATLSVSPGERATLSCRASQSVGNNLAWYQQRPGQAPRLLIYGASTRATGIPARFSGSGSGTEFTLTISSLQSEDFAVYYCQQYDKWPETFGQGTKVDIKR
B4: antibody 831 (clone 831) (antibody, human IgG1, kappa, V domains shown)
VH: QVQLVQSGAEVKKPGASVKVSCKASANIFTYAMHWVRQAPGQRLEWMGWINVGNGQTKYSQRFQGRVTITRDTSATTAYMELSTLRSEDTAVYYCARRASQYGEVYGNYFDYWGQGTLVTVSS
VL: DIQMTQSPSTLSASVGDRLTITCRASQNIYNWLAWYQQKPGKAPKLLIYDASTLESGVPSRFSGSGSGTEFTLTISSLQPDDFATYYCQQYNSLSPTFGQGTKVEIKR
B5: antibody 827 (clone 827) (antibody, human IgG1, kappa, V domains shown)
VH: QVQLVQSGAEVKKPGASVKVSCRVSGHTFTALSKHWMRQGPGGGLEWMGFFDPEDGDTGYAQKFQGRVTMTEDTATGTAYMELSSLTSDDTAVYYCATVAAAGNFDNWGQGTLVTVSS
VL: DIQMTQSPSSLAASVGDRVTITCRASQFISSYLHWYQQRPGKAPKLLMYAASTLQSGVPSRFSGSGSGTDFTLTISSLQPEDFATYYCQQSYTNPYTFGQGTKLEIKR
B6: antibody 818 (clone 818) (antibody, human IgG1, kappa, V domains shown)
VH: QVTLRESGPAVVKPTETLTLTCAFSGFSLNAGRVGVSWIRQPPGQAPEWLARIDWDDDKAFRTSLKTRLSISKDSSKNQVVLTLSNMDPADTATYYCARTQVFASGGYYLYYLDHWGQGTLVTVSS
VL: DIQMTQSPSSLSASVGDRVTITCRASQTIASYVNWYQQKPGRAPSLLIYAASNLQSGVPPRFSGSGSGTDFTLTISGLQPDDFATYYCQQSYSYRALTFGGGTKVEIKR

substrate: F protein of RSV strain Long (human respiratory syncytial virus strain Long (subtype A)) (UniProt P12568); experiment: cell-based or functional assay
Sequence (P12568 26-574): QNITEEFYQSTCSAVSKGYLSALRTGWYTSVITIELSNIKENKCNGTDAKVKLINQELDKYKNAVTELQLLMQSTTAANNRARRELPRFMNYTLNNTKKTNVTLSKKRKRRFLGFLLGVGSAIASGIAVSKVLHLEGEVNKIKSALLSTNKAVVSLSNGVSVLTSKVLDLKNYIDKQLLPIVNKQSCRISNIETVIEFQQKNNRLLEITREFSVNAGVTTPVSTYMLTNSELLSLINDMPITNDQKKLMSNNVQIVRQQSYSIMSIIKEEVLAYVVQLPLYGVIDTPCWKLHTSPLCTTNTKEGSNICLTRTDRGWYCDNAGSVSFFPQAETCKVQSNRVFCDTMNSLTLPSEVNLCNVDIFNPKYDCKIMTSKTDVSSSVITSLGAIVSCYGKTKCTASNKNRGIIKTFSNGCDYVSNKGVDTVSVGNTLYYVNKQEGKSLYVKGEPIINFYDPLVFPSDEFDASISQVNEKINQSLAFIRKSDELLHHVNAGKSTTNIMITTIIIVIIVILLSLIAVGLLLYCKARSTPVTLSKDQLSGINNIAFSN

Binder	EC50, PRNT with complement, RSV Long [µg/mL]	EC50, PRNT with complement, RSV Long (new determination) [µg/mL]
B1	0.15	
B2	0.38	
B3	0.08	
B4	0.08	
B5	0.16	
B6	1.86	0.15

substrate: F protein of RSV strain 18537 (human respiratory syncytial virus strain 18537 (subtype B)) (UniProt P13843); experiment: cell-based or functional assay
Sequence (P13843 26-574): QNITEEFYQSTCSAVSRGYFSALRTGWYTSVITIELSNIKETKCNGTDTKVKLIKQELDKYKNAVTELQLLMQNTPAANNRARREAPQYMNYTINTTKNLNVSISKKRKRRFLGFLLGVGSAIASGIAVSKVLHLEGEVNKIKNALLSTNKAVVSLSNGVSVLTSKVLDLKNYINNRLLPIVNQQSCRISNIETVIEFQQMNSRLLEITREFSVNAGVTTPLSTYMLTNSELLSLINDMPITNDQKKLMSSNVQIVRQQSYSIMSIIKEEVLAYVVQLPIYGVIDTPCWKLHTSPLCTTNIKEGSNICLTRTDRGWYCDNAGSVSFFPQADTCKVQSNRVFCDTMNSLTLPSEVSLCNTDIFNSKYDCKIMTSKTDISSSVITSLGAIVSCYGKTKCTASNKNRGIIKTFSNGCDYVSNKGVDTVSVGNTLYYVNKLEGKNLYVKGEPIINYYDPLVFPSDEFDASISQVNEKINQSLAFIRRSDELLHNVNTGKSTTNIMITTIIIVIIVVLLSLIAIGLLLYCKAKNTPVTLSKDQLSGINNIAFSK

Binder	EC50, PRNT with complement, RSV 18537 [µg/mL]
B2	0.95
B3	0.07
B4	0.72
B5	0.1
B6	0.21

substrate: F protein of RSV strain B1 (human respiratory syncytial virus strain B1 (subtype B)) (UniProt O36634); experiment: cell-based or functional assay
Sequence (O36634 26-574): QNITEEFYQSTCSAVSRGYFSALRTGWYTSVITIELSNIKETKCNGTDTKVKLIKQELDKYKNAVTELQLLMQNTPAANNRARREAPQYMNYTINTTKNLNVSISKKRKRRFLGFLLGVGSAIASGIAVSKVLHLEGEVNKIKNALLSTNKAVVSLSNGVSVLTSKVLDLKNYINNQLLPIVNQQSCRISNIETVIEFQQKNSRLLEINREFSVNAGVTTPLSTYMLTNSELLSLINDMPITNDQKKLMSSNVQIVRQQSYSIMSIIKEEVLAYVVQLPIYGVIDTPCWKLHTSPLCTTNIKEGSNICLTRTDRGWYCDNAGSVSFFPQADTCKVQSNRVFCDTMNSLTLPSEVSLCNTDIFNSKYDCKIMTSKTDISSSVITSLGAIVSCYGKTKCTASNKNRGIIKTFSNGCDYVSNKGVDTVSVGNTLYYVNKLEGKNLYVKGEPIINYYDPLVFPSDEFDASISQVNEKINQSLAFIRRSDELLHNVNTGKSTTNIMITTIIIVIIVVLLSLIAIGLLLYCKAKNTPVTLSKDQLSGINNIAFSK

Binder	EC50, PRNT with complement, RSV B1 [µg/mL]
B1	0.16
B2	0.4
B4	1.66
